The results in this text go back to patent US20210246218A1 (LYVGEN BIOPHARMA SUZHOU, published 2021).

“And” between values parts separate entries of the source, which are not always exact repeats. Equal entries are not always repeated.

In test [1] the target is T1, recombinant human CD137 receptor protein (human, UniProt Q07011 24-186).
T1 construct: Coated on ELISA plates; also called recombinant human CD137 protein
In words: ELISA, huCD137 coated, clone 3712 titrated; full sigmoid, plateau about 1.5. As for the experimental part: For the data shown in FIGS. 16C-D, chimeric CD137 receptor protein samples were diluted in DPBS to 5 μg/mL and then coated onto an ELISA plate (Corning, Catalog number: 9018, high binding) at 50 μL (0.25 μg) per well, and incubated at 4° C. overnight. The plate was decanted and washed once; assay diluent was added at 200 μL/well. After a 1-hour incubation at room temperature, the plate was washed with PBST one time. […] The plate was incubated 1 hour at room temperature and then washed three times with PBST. Goat anti-human IgG-H+L HRP-conjugated at 1:100,000 dilution or goat anti-mouse IgG (H+L) secondary antibody, HRP, 10 at 1:50,000 dilution was added to the plate at 100 μL/well. The plate was incubated 1 hour at room temperature followed by washing with PBST four times. The TMB substrate solution was added 100 μL/well. The color was permitted to develop for 15 minutes and then 100 μL/well 2N H2SO4 was added to terminate the reaction. Absorbance at 450 nm and 620 nm was determined by a Tecan F200 Pro reader.
(In an ELISA, binding on a coated surface is turned into a signal by an enzyme label.)

The next test deals with T2, CD137 protein (UniProt Q07011 24-186, limits assumed).
T2 construct: also called CD137 antigen; CD137 receptor
In words: competition ELISA with CD137L: CD137 receptor coated, antibody titrated, CD137L added; A450-A620 falls from about 1.25 to about 0.64 (midpoint of an inhibition curve, called EC50 in the sheet's table). As for the experimental part: CD137 receptor was diluted in DPBS to 1 μg/mL, and then coated onto an ELISA plate (Corning, Catalog number: 9018, high binding) with a volume of 50 μL (0.05 μg) per well, and incubated at 4° C. overnight. The plate was decanted and washed once; assay diluent was added 200 μL/well. […] The diluted CD137 receptor was added to the assay plate, 50 μL/well, in duplicate. The plate was incubated one hour at room temperature. […] The plate was incubated one hour at room temperature and then washed three times with PBST. Goat anti-human IgG-H+L HRP conjugated at 1:100,000 20 dilution was added to the plate at 100 μL/well. The plate was then incubated one hour at room temperature followed by washing with PBST four times. The TMB substrate solution was added at 100 μL/well. The color was allowed to develop for 15 minutes, and was stopped with 100 μL/well 2N H2SO4. Absorbance at 450 nm and 620 nm was determined by a Tecan F200 Pro reader.

The next test addresses T3, human CD137 on cells (human, UniProt Q07011 24-255).
T3 construct: whole, on cells; also called CHO-human CD137; CHO cells over-expressing human CD137
In words: flow cytometry on CHO cells over-expressing human CD137; average, n=6. As for the experimental part:
CHO cells over-expressing human or cynomolgus monkey CD137 and CHO parental cells were harvested by centrifugation at 1000 g for 3 minutes. The cells were resuspended in ice cold assay buffer at 2*10\hat{ }6/mL and transferred to 96-well V-bottom plate with 100 μL/well. […] The plate was mixed and incubated in the dark for 2 hours at 4° C. The cells were washed 3 times by centrifugation at 1000 g for 3 min and resuspended in ice cold assay buffer containing goat F(ab′)₂ anti-human IgG-Fc (PE), 100 μL/well. The plate was incubated in the dark for another 1 hour at 4° C. The cells were washed 2 times by centrifugation at 1000 g for 3 min and resuspended in ice cold assay buffer containing 2% PFA. The cells were then subjected to the flow cytometer immediately.
Mean fluorescence intensity (MFI) was calculated from the total cell population in the FCM experiments. Graphpad 7.0, “[Agonist] vs. response—Variable slope (four parameters)” was used to plot the binding MFI in dose response and to calculate FCM binding EC₅₀ values.
In general terms: A flow cytometer gives signals particle by particle.

Test [2] has as its target T1, recombinant human CD137 receptor protein. The test can be described thus: ELISA, clone 3712-IgG1v coated, huCD137 titrated (EC50 is a concentration of the CD137 protein); full sigmoid, plateau about 1.9.
The next test addresses T4, huCD137-C6His (human, UniProt Q07011 24-186).
T4 construct: Immobilised by amine coupling on the sensor chip; also called human CD137 protein (Biacore ligand); not shown: C-terminal 6xHis tag by the name C6His
The test can be described thus: SPR (Biacore T200), huCD137-C6His immobilised, antibody as analyte, 1:1 model, 25 °C. As for the experimental part: Flow cells of a CMS sensor chip (GE Healthcare Life Sciences) were activated with freshly mixed 50 mmol/L NHS and 200 mmol/L EDC for 420 seconds (10 μL/min). Then, huCD137-C6His in 10 mmol/L NaAC (pH 5.0) was injected onto the activated flow cell (10 μL/min) with HBS-EP (10 mM HEPES, 150 mM NaCl, 3 mM EDTA and 0.05% P20, pH 7.4) as the running buffer. The remaining active coupling sites were blocked with a 420 second injection of 1 mol/L ethanolamine The measurement was performed under 25° C., and HBS-EP was used as the running buffer. An injection of a tested analyte and surface regeneration of the CMS sensor chip were included in each running cycle. […] Buffer flow was maintained for approximately 180 seconds for dissociation. To remove the tested antibodies, an injection of 10 mM glycine-HCl for approximately 30 seconds was used for regeneration. The above procedures were repeated for each concentration of serially diluted tested antibody. The raw data of the surface plasmon resonance experiments were evaluated using Biacore T200 evaluation software 3.1 with a 1:1 binding model. Flow cell 1 was used as the reference flow cell.
For orientation: SPR reads the build-up and loss of mass on a sensor chip optically.

B1: Clone 3712-IgG1v (IgG1v/kappa) (antibody)
heavy: QVQLVQSGAEVKKPGASVKVSCKASGYTFAGFEMHWVRQAPGQGLEWMGAIDPKTGGTDYNQKFKDRVTMTRDTSISTAYMELSRLRSDDTAVYYCARDLGYFDVWGQGTLVTVSSASTKGPSVFPLAPSSKSTSGGTAALGCLVKDYFPEPVTVSWNSGALTSGVHTFPAVLQSSGLYSLSSVVTVPSSSLGTQTYICNVNHKPSNTKVDKKVEPKSCDKTHTCPPCPAPELLGPSVFLFPPKPKDTLMISRTPEVTCVVVDVEHEDPEVKFNWYVDGVEVHNAKTKPREEQYNSTYRVVSVLTVLHQDWLNGKEYKCKVSNKALPAPIEKTISKAKGQPREPQVYTLPPSREEMTKNQVSLTCLVKGFYPSDIAVEWESNGQPENNYKTTPPVLDSDGSFFLYSKLTVDKSRWQQGNVFSCSVMHEALHNHYTQKSLSLSPGK
light: DIQMTQSPSSLSASVGDRVTITCRASQDIRSNLNWYQQKPGGAVKLLIYYTSRLHSGVPSRFSGSGSGTDYTLTISSLQPEDFATYFCQQSEKLPRTFGGGTKVEIRRTVAAPSVFIFPPSDEQLKSGTASVVCLLNNFYPREAKVQWKVDNALQSGNSQESVTEQDSKDSTYSLSSTLTLSKADYEKHKVYACEVTHQGLSSPVTKSFNRGEC
notes: copies: 2 + 2
Broadly, the EC50 is the midpoint of the concentration-response curve. A word on the IC50: it is the midpoint of a concentration-inhibition curve. What is called Kd is a measure of binding affinity in units of concentration. As a reminder, the koff is the rate constant with which the complex falls apart. For orientation: kon means the rate constant with which the complex forms. Read a low kon as slower complex formation. Regarding B1, the EC50 in test [1] is 0.0495 µg/mL. This molecule displayed an IC50 with CD137 protein of 0.0643 µg/mL. Moreover, the EC50 in the test with human CD137 on cells is 0.35 nM and 0.0497 µg/mL. Moreover, the EC50 in test [2] is 0.0562 µg/mL. Besides, in the test with huCD137-C6His, the Kd was found to be 18.9 nM, the koff was determined as 0.0138 s⁻¹ and the kon came out at 730000 M⁻¹ s⁻¹.
